Assay results from the NTF2 design screens of Basanta et al. (2020).

Assay: protease stability score; higher = more stable; yeast display proteolysis, trypsin and chymotrypsin;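 note: relative to predicted unfolded state with 0 unfolded-like and 1 meaning tenfold more protease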

Row | Sequence | protease stability score
1 | DEERQTLEEWARELLQIHKTGDEERHKEYADPDDLLRIGDKDFHGMEHVLHALVQHWEKMGVKHLEIKRLRVINGVMHVEGVLHVGDKTHDVKLHLFIFNGRIERVEIRIE | 1.33
2 | DEERRHFEHFFHLWEQIMVTGDEDMARMLADPNVRIQVGDKKYHGREHFAELIKHLRVERIRIHTFRLYDGRIELIIHVHGNVNGQRDEFETRSHTIKVDGVWVIHSFHID | 1.6
3 | DEERRRAKKFLEQFVRNVETGDEELHYHLADPHMKVKIGDKEFHGMEHWIEWFHRFGFDHMEIELKDIRVQGDKAHIDGRLHVDYNGREHSTNVELVVRKVNGRWRLHELRVE | 1.28
4 | DEERRRDEEDWRFLEHVWETGDFDALVNMIDPNVRIEFEGRTHHGREDASHLIKRLGVKYFEVKSQNIQGDYIIDDVEFRVGEYRTRVRIIIHKIDGKWYIHSLHIL | 0.913
5 | DEERRSSEEYVRTLHDIIRTGDEDRLVRLADPHARLEVGEFHFHGREELEHFWRKIIEHFGHDKIEVRIESVEVQGEKIVNVGKLSVNGQEREIIFIALKYNGRWITRSIHLH | 1.59
6 | DEERTLVEELIQIFVEALETGDFETLSKMFDPHALFLQGDKRFVGRKDIEKWIHDLVRRLGVNHIEIDKITVQGEKAHVDTRVHIGDKTSTIHILIVKVNGRWFVEEIRYH | 1.17
7 | DEERVKQVQKKAFEAVMKGNDDEMRKIGKPNVRYEYIDEKNEGQEAVDVVIQLVKKVGAEAKVRRTEVKGDTVRAIFVYNDGDQTVQTKVEVKYEGDKVKEARVELTDEVQKVLHKG | -0.027
8 | DEESEDAKRVLDEWLHMLDTGNEERLHELADPNMRFDVNGKEIHGMEIWQKEMKRSLTHHGAEMHHRIRTIEVQGNKILVDGELIINFNGRTYLHKIHIIFQKFDGRWHVESLTIK | -0.052
9 | DEESEKVEHFLEELFRAMETGDEDQFRKLMDPNVRASYGDKEVHGRNDILHWIREYRERVKNLKLEVHRVRVRIYNGRVEIEMDTILRINGKEHKVTLTFDVTKVNGRWFIEHVEVEVR | 1.37
10 | DEESKESHDIMRILLHIFRTGDEHKLKEMADPNTLFHIGDKEFHGREEFVHFLREVFEKIKNIKHRITDIKDVGDKIHVEVEEKVNGRHRHVELIWLVVDGKIQWYEIRIR | 1.23
11 | DEESKFLTEMLEDILRALITGDEEHLQTLMDPDVRVEVGDKLFIGREQASEFWRREFEEIRIDDFRIHHLEVIDGRVHVHGRVDGTIGDKHHRREIIIHDLIVNGRIKKIRIEIH | 1.31
12 | DEESRLIEEFIKKVTHALRTGDEHRMHHLLDPHVRFYIGDKFLIGRENMAHLIRWLIEHLGVDHTHLESSSIINGKSFLDTRMHVDGQEIEVRFIIVLFDGVVNRVHYQIE | 1.1
13 | DEETEDLRRWFEALLRSTHTGDFHTLNRLIDPNVRMDVGDKRHHGREFFEHLLRRADHIKIELEDYEFQGNKVIFHGKLIIHYNGQDLEYKSSMDAEKVDGRWIVRRVYLE | 1.58
14 | DEETEEERKITELSLKAYKTGDEDTLSSLIDPHARFIYNGRHHHGRETASHILRRETERLGVKHIHLKDTEIDDVNGVVDMRIHMMVHYGNKTTELIIILRITKFNGRWIIETIEVRVR | 0.691
15 | DEETEEIELAFHFFQHAYETGNEEVLMELADPDVKIDVNGRKLHGRERVWKFLIHHWHHLGIKHIHMDRIEIYGNKVVVDGEIKYGDKSDETIMYVVKVDGRWKLEMIEVK | 1.47
16 | DEETEIEKHAMEHIFRANETGNWREILEMIDPNVKIEYGDKERHGMTIYLEILELWGITKIHLDIQSIRVINGRMDIHGRIVFNGKTHTVDLHLLKVDGRWILTEIRVR | 1.3
17 | DEETEILKKVVKEMRKIMHTGDEHEIHRYLDPNARLDVDGREVHGREALLEFLRKFKGMTVHIDDVEDIGDKIFIDHELRFDGVTRKSEIISNKINGRWHVESVHIR | 0.357
18 | DEETEISRRALKIFLDTIHTGDPRELKENLDPSVRIIINGVHYHGRESFEHVLERVEKSAGVDRVHVELRDFRIYGDKVEVEVTNHFNGRTEIDHFILRKVNGRWYIHEVEFE | 2.18
19 | DEETEIVERYERILVKALTTGDWRRIERLMDPNVKSVVNGREYHGMERYLELYRRIRSEIRINDLRIHKVTEVGNKIEAITVWHVEVDGRIEDLETRVFLRKIDGRWILEREEVA | 0.827
20 | DEETEKDKFLSEVFRHSLMTGDWESELKYADPHARTVVNGRTIHGMRESWEHLKELLERLGAKYIKIRDMDSHIQGDKVLININGELHVGDKTIETRIHLIVRKVNGQWHIEELRFDFK | 0.993
21 | DEETELDERVIKLLIEALKTGDEHLKERMMDPRVRFLIDGVDLIGREWAFHIARHWRIHIHHIEHKSISRQGDYLRVNGKEDGVEEFDGRRVEKEVSSHRLILKIDGRWVLTHVELR | 1.28
22 | DEETELTERAIEESKHNMETGDEDRLIELIDPNVKVEIGDKTFHGWEELMRWWHELGIKHVHLEFHDVKHFNGRIEVDGRLHIDVNGRTILLRVELYFQKINGQWFKESIHIK | 1.67
23 | DEETEWLERLVRVILHALDTGDEDEMNQNADPHTRVRVGDKEYHGRELFLDVFRERVHRLGIDHSNLREFDIQGDFFHLDTRLQVGDKFLEVNLIFHVINGRITIVRIDYR | 1.15
24 | DEETKELEEIMKFYISAFRTGDWRLIEELADPNVRLNVDGREFHGREQFLKHFREELEHLGIDHVHVDHIDIQGEKLIIRLTIHVDGREIHNILILIIVNGRLHEVKWIRV | 1.58
25 | DEETKETIELMEKFRQDEETGDWRSLHRMADPHTKLVVDGREYHGMEHATTYLVEFIEHFGVKHFHIEDSHVVDGRIVLHTRVEVGDKSREIRIVALKINGVWLMQSIEIG | 0.102

Row | Sequence | protease stability score
26 | DEETKFLLDIFRLVLELFMTGDEDTFSRLFDPNVRNEVNGVEAIGWHQVRELIKEILKEIRIEHIHIHDVRAVGDKVHADTRTDGIINGKRQRRETHVHLETVNGRLKSIWLQIE | 1.13
27 | DEETKIIEHILEHWLRLIQTGDFHELFRLVDPNVRIDINGVEYHGREEMIKFWKEEVDKLGVDRIHTDLNRNEYQGDKIILHQEVRINGRHIDIHVHAEKVDGVWILRILKRD | 1.57
28 | DEETKKLRKFMEQFIEALRTGDEEILEHLIDPNVRNIVGDKQEHGRELLLTWLVKYKGVRWMIDHITIINGVIEIHGTLQVGDKEISIHIHVLVINGKVKSVEIREN | 1.47
29 | DEETKLNHLAIRLWLQSVMTGNEELQTKLIDPHVRNHIDGREYHGREVFRENLRDLWEKYGVKHVELTHEHSQGEKVHLRFKVDVNGRELDHKIIAHKIDGRWLDHSIHFH | 0.611
30 | DEETKRAEELMELWLHLLRTGDEELLSELMDPHVRLDINGVELHGREALLQWHHEHRRRIDHREIRVESRRIQGEKVEQHEDIIIHVNGVEFRHREFYEVVIIDGRFKELHIEHE | 0.546
31 | DEETNLSKLVMEISLELLETGDEEHIHRFVDPHARTILFIDGREEQVHGREQASKWIMWTVKFLGVDHIEVEDTKIVNGVAHLNIRMEVGDKRLTSHFTSEKVNGKWLIKDIRIRID | 1.94
32 | DEETQNVRTILEEFVHDFETGDERLMHRYLDPNVRIDWNGRDYHGRETMFQMIRELSDKIKNIRIRIEHIDIINGVIIIHGDLHYNGKDVKTTLYFLKVNGRWLITRLEYK | 1.39
33 | DEETRATKRFLDEVLEARATGDWRTLTRNMDPHYRLEIGEKEVHGMEEVSHMVTEEMVRLGIKHSDLKIKDSRFYNGVLHLDGRLILEVNGVRLESDVTLVELKVNGRWQIRFERWE | 1.08
34 | DEETRDFDVAFMYFILFEKTGDERELLELLDPDARMVVGDKRRVGRESVLHFMREHLRTLGFKHVEDIELHDFKVYDGRIELDIRVRGRVNGKTHTLTYLMIAHKVDGRWFIHSLEVR | 2.14
35 | DEETRDIIHILKLLWDAIRTGDEEAIRRLLDPDMRIQVGDKEIHGREEFLKEISHWRYDLESFHIKHVDVINGVAIIHLHIVGRFHYDGRTYHDSYEEDVFIFKVNGRWHFHQIKYR | 1.84
36 | DEETRDLHHALRIVLHILRTGDFSHLFEYADPHVKIDINGKEVHGMEQMHHEIERLYFELGVDNVTVQHKRIIVYDGRVLVHMISHIGDKWRDIIIIFLKVNGRWRLHSIEVK | 1.72
37 | DEETREAKEAFDIIIKHIETGDEDLLSEMLDPNVRINQGEFRIHGREAVEEWLNYMLHHMRVHVRSEEVRVVGDKVESDFRVQINQGDKIYHHDTRLFLFKIDGRWFIESMEFH | 1.36
38 | DEETRHAREMMRIIAESLHTGDEDRLLEMIDPNVRVHVDGQDYHGREQWFQYLHEELRHLRIKHLTVTHHKVYDGRVELHLRVHGEVNGRHTEKTFIVIILKVDGRWKIESLRIE | 2.15
39 | DEETRMSEHAERLLIRSIRTGDFEEITRLADPHVRVHIGDKDIHGRESLSEVLEKTMRKFGVDNVDYKIEDSHTYDGRIDIRGRLEVNGVKREVRFHSLKIDGRWLLTHVEMD | -0.04
40 | DEEVAKKMMEAWMKALQNGNDEQMKKLYDPTVRWEDGNTEKQGLEVVVKLVQTVKKKGIEFQVRKAKVKGNQVEVHYDMKVGDDTVTFTVQFRAQGGRIQEVRVEISEEARKAVKKG | 1.32
41 | DEEYDIAEEILHLLVELILTGDEHEILRYADPNVRLIIGDKDIHGMDWVSRFNMHLRLDDMKWELKRAHVYNGVIDNRGHLVMHGEIDGRHDTIKRETRILINKVNGRWNIREILIH | 0.653
42 | DEEYESMKIAVERLVQAHKTGDEDFLRELADPHVRVEIGDKRMHGWDRFDEWFKFVHHHLRIKDVDMKEFHIQGNKMHVRLELHGHYNGRDLILERHVILLKVNGRWILHVVQLG | 2.3
43 | DEFEEAIKLVDDIRSFALLTGDEKELKHMADPNVKLDFNGVELVGMERVWKFFEEIRLVERHVHIKDRDVQGDKVRVDGRQDIEVQQGDKKSRMDIRLDIIIKKVDGRWIVHSLVLI | 0.77
44 | DEFEKDFRFAIEEWLKVVRTGDEDRAHELMDPDVKLDIGDKRHHGREEMLHHVRRADVIHDYKIKDLKFQGNYITVQGEVDGQIGDKRIRTEVRVIILKIDGVWLWRQNYER | 0.907
45 | DEFEKTAEELLRRLVKNMKTGNEDMISHLLDPNARLEVGEFEYHGREQLVRFLVHLRVDHVDLHHVEVQGDKLILDTRTDGTFNGRRRNIRETIIIRKVNGKWIIESYHVE | 1.46
46 | DEFHELARHALKLFKDTMDTGDEHTLEHLVDPNVRLLVDGQEIHGREAMEEFWRRVPNLRLYFHDVRVIGDKIIVDGKIEYGDKEIDSRIYLRKINGRWRFESVELR | 1.4
47 | DEFHHLLELFLKLLAEQSRTGDEDSFERLFDPNVRVDINGRELHGWEAYQETRDRLGIERFDLRRIHSHTVNVVNGQVHMDMRTDGVIGDKRIDRTIHIRTTKINGRWFFTHLEWE | 0.578
48 | DEFHHSVELAIRIIFEILRTGDEHHMDTMADPDVRIIIGDKHNVGRELVKDVMRRLVTEWRIRHWEIKNSHLIGDKLLVDSHVEVEVGDFNLRTDVHLVFTKINGRWTLHSHHID | 1.09
49 | DEFHHWYERVIQEFDHAVETGNEHRIRELLDPNVRIIIDGQDLHGREDMIHLISEIRVSITDRRERSFRPVGDKINLLMRVDQQVFVDGQTEQVDTEVRWIIIKVNGVWLIRRIEVI | 1.47
50 | DEFKELTTEFIKQFLDNIRTGNEELLRELADPHVRFLVNGRELHGRESFVETFRHWRMKDWEIRDVEVYGEKLVMDGHVRVNIDGREDSVRVRLYVDKIDGQWHHRRFEFN | 1.76
